US20240132581A1 (BEIJING WISDOMAB BIOTECHNOLOGY, published 2024)

B4: hTSLP1-m-mFc (Fc fusion)
chain: YDFTNCDFEKIKAAYLSTISKDLITYMSGTKSTEFNNTVSCSNRPHCLTEIQSLTFNPTAGCASLAKEMFAMKTKAALAIWCPGYSETQINATQAMKKVTTNKCLEQVSQLQGLWRRFNRPLLKQQPRGPTIKPCPPCKCPAPNLLGGPSVFIFPPKIKDVLMISLSPIVTCVVVDVSEDDPDVQISWFVNNVEVHTAQTQTHREDYNSTLRVVSALPIQHQDWMSGKEFKCKVNNKDLPAPIERTISKPKGSVRAPQVYVLPPPEEEMTKKQVTLTCMVTDFMPEDIYVEWTNNGKTELNYKNTEPVLDSDGSYFMYSKLRVEKKNWVERNSYSCSVVHEGLHNHHTTKSFSRTPGK
notes: also called recombinant protein hTSLP1-m-mFc

Experiments:
[1] = target: T1, hTSLP:hTSLPR complex (hTSLP1-m-mFc with hTSLPR-ECD bound, formed on the chip) (human (Homo sapiens), UniProt Q9HC73 23-231); experiment: SPR (Biacore T200): chip surface with hTSLP1-m-mFc captured by anti-mFc antibody and loaded with hTSLPR-ECD, antibody at 50 µg/mL injected before hIL-7Rα-ECD [continued) D]
T1 construct: also called TSLP:TSLPR complex
Experimental: (§1) Two molecules were sequentially injected using a double injection mode of Biacore T200. […] Each of the molecules was injected for 60 s. The surface of the chip was regenerated at the end of the injection by injecting 10 mM glycine-HCl (pH 1.7) at 10 μL/min for 30 s. The Y-axis reporting points for the double baselines were zeroed using Biacore T200 evaluation software version 3.0, and then the RU values were plotted against times using GraphPad software.

hTSLP1-m-mFc [2] = target: B4; experiment: SPR (Biacore T200): hTSLP1-m-mFc captured (about 80 RU) by anti-mFc antibody on CM5, antibody at 50 µg/mL [continued) E]
Experimental: (§2) The recombinant protein hTSLP1-m-mFc was diluted to 2 μg/mL with 1×HBS-EP buffer, and was injected at 10 μL/min for 12 s. Approximately 80 RU of hTSLP1-m-mFc was captured by the anti-mFc antibody. […] Two molecules were sequentially injected using a double injection mode of Biacore T200. […] Each of the molecules was injected for 90 s. The surface of the chip was regenerated at the end of the injection by injecting 10 mM glycine-HCl (pH 1.7) at 10 μL/min for 30 s. The Y-axis reporting points for the double baselines were zeroed using Biacore T200 evaluation software version 3.0, and then the RU values were plotted against times using GraphPad software.

[3] = target: cynomolgus monkey TSLP (mfTSLP) (cynomolgus monkey (Macaca fascicularis)); experiment: SPR Biacore X100 as in Example 3.1, antibody captured, mfTSLP as analyte
hTSLP1-m-mFc [4] = target: B4; experiment: SPR (Biacore T200): hTSLP1-m-mFc captured (about 80 RU) by anti-mFc antibody on CM5, antibody at 50 µg/mL [continued) C]
Experimental: as §2

[5] = target: T1, hTSLP:hTSLPR complex (hTSLP1-m-mFc with …); experiment: SPR (Biacore T200): chip surface with hTSLP1-m-mFc captured by anti-mFc antibody and loaded with hTSLPR-ECD, antibody at 50 µg/mL injected before hIL-7Rα-ECD [continued) B]
Experimental: as §1

hTSLP1-m-mFc [6] = target: B4; experiment: SPR (Biacore T200): hTSLP1-m-mFc captured (about 80 RU) by anti-mFc antibody on CM5, antibody at 50 µg/mL [continued) D]
Experimental: as §2

[7] = target: T1, hTSLP:hTSLPR complex (hTSLP1-m-mFc with …); experiment: SPR (Biacore T200): chip surface with hTSLP1-m-mFc captured by anti-mFc antibody and loaded with hTSLPR-ECD, antibody at 50 µg/mL injected before hIL-7Rα-ECD [continued) C]
Experimental: as §1

[8] = target: T2, extracellular domain of human TSLP receptor (hTSLPR-ECD) (human (Homo sapiens), UniProt Q9HC73 23-231); experiment: SPR (Biacore T200): hTSLP1-m-mFc captured (about 80 RU) by anti-mFc antibody on CM5, buffer then hTSLPR-ECD at 100 µg/mL
T2 sequence: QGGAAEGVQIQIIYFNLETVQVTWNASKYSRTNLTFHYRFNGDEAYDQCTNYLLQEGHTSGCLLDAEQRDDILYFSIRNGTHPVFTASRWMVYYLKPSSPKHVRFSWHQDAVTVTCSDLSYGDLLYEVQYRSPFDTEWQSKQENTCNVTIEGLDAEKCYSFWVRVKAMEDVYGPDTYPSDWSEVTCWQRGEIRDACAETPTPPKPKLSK
Experimental: as §2

B1: H1A10×H3B10-M1+L3E8-M7 BsAb (anti-human TSLP bispecific antibody) (bispecific antibody, human IgG1, kappa)
heavy 1: QVQLVQSGAEVKKPGASVKVSCKASGYAFSNYWMNWVRQAPGQGLEWMGQIFPGDSDTDYDQKFQGRVTMTRDTSTSTVYMELSSLRSEDTAVYYCARAGYYRGYYAMDYWGQGTTVTVSSASTKGPSVFPLAPSSKSTSGGTAALGCLVKDYFPEPVTVSWNSGALTSGVHTFPAVLQSSGLYSLSSVVTVPSSSLGTQTYICNVNHKPSNTKVDKRVEPKSCDKTHTCPPCPAPEFEGGPSVFLFPPKPKDTLMISRTPEVTCVVVDVSHEDPEVKFNWYVDGVEVHNAKTKPREEQYNSTYRVVSVLTVLHQDWLNGKEYKCKVSNKALPASIEKTISKAKGQPREPQVYTLPPCREEMTKNQVSLWCLVKGFYPSDIAVEWESNGQPENNYKTTPPVLDSDGSFFLYSKLTVDKSRWQQGNVFSCSVMHEALHNHYTQKSLSLSPGK
heavy 2: QVTLKESGPVLVKPTETLTLTCTVSGFSLSSYDISWIRQPPGKALEWLGVIWSEGGTSYSTSLKSRLTISKDTSKSQVVLTMTNMDPVDTATYYCARDSDDGYLNWGQGTLVTVSSASTKGPSVFPLAPSSKSTSEGTAALGCLVKDYFPEPVTVSWNSGALTSGVHTFPAVLQSSGLYSLSSVVTVPSSSLGTQTYICNVDHKPSNTKVDKTVEPKSCDKTHTCPPCPAPEFEGGPSVFLFPPKPKDTLMISRTPEVTCVVVDVSQEDPEVQFNWYVDGVEVHNAKTKPREEQYNSTYRVVSVLTVLHQDWLNGKEYKCKVSNKALPASIEKTISKAKGQPREPQVCTLPPSQEEMTKNQVSLSCAVKGFYPSDIAVEWESNGQPENNYKTTPPVLDSDGSFFLVSKLTVDKSRWQEGNVFSCSVMHEALHNHYTQKSLSLSPGK
light: EIVMTQSPATLSVSPGERATLSCSVSSSISSSNLHWYQQKPGQAPRPWIYGTSNLASGIPARFSGSGSGTEFTLTISSVQAEDFAVYYCQQWSSYPLTFGQGTKLEIKRTVAAPSVFIFPPSDEQLKSGTASVVCLLNNFYPREAKVQWKVDNALQSGNSQESVTEQDSKDSTYSLSSTLTLSKADYEKHKVYACEVTHQGLSSPVTKSFNRGEC
notes: also called bispecific antibody H1A10×H3B10-M1+L3E8-M7; bispecific antibody H1A10×H3B10-M1
[1]
  binding result: binds
hTSLP1-m-mFc [2]
  binding result: binds
[3]
  Kd: 2.75 nM

B2: H3B10-M1+L3E8-M7 (humanized monoclonal antibody) (antibody, V domains shown)
VH: QVTLKESGPVLVKPTETLTLTCTVSGFSLSSYDISWIRQPPGKALEWLGVIWSEGGTSYSTSLKSRLTISKDTSKSQVVLTMTNMDPVDTATYYCARDSDDGYLNWGQGTLVTVSS
VL: EIVMTQSPATLSVSPGERATLSCSVSSSISSSNLHWYQQKPGQAPRPWIYGTSNLASGIPARFSGSGSGTEFTLTISSVQAEDFAVYYCQQWSSYPLTFGQGTKLEIK
notes: Expressed as a whole antibody
hTSLP1-m-mFc [4]
  binding result: binds
[5]
  binding result: binds

B3: H1A10+L3E8-M7 (humanized monoclonal antibody) (antibody, V domains shown)
VH: QVQLVQSGAEVKKPGASVKVSCKASGYAFSNYWMNWVRQAPGQGLEWMGQIFPGDSDTDYDQKFQGRVTMTRDTSTSTVYMELSSLRSEDTAVYYCARAGYYRGYYAMDYWGQGTTVTVSS
VL: EIVMTQSPATLSVSPGERATLSCSVSSSISSSNLHWYQQKPGQAPRPWIYGTSNLASGIPARFSGSGSGTEFTLTISSVQAEDFAVYYCQQWSSYPLTFGQGTKLEIK
notes: Expressed as a whole antibody
hTSLP1-m-mFc [6]
  binding result: binds
[7]
  binding result: binds

## B4
[8]
  binding result: binds
